Reference: patent publication US5145837A, “Treatment of arthritis” (Sandoz Ltd., priority 1988, dated 1992)

B1: PTH: parathyroid hormone used to stimulate prostaglandin E2 production (protein, UniProt P01270 32-115, looked up)
Parathyroid hormone: SVSEIQLMHNLGKHLNSMERVEWLRKKLQDVHNFVALGAPLAPRDAGSQRPRKKEDNVLVESHEKSLGEADKADVNVLTKAKSQ
modifications: Parathyroid hormone
notes: parathyroid hormone used to stimulate prostaglandin E2 production

Experiments:
Tolerability = details: in vivo
[1] = system: prostaglandin E2 production in mouse calvariae; experiment: Inhibitory effect on prostaglandin E2 production stimulated by PTH in organ cultures of mouse calvariae; assay type: cell-based
Experimental: Organ cultures of mouse calvariae are first prepared according to the principles of U. L. Ivey, D. R. Wright, A. H. Tashjian, J. Clin. Invest. 58:1327 (1976) as follows:
Frontal and parietal bones are dissected from neonatal (5 to 6-day-old) mice (strain CD-1), split along the sagittal suture, and cultured in 2 ml of BGJ-medium containing 1 mg/ml bovine serum albumin, penicillin and streptomycin in 35 mm plastic tissue culture wells. […]
The cells are cultured for another 48 hours. During the entire culture period, the multi-well dishes are shaken on a rocker platform (15 oscillations/min) in a humidified atmosphere of 5% CO2 in air at 37° C. The calvaria-conditioned medium is harvested and placed at 4° C.
An aliquot of the medium is then assayed for prostaglandin E2 using a standard radioimmunossay. Prostaglandin E2 levels are reduced.

Molecule | tolerated dose (Tolerability) [mg] | PGE2 synthesis ([1]; PTH 10^-7 M alone (so in the source)) [pg/mL] | PGE2 synthesis ([1]; PTH 10^-10 M alone) [pg/mL]
C[C@@H](O)[C@@H]1NC(=O)[C@H](CCCCN)NC(=O)[C@@H](Cc2c[nH]c3ccccc23)NC(=O)[C@H](Cc2ccccc2)NC(=O)[C@@H](NC(=O)[C@H](N)Cc2ccccc2)CSSC[C@@H](C(=O)N[C@H](CO)[C@@H](C)O)NC1=O [Compound IVa] | ≥ 1 |  | 
B1 |  | 340 | 50
